Where no end group is shown, it is not given here.
Each binder was assayed against NbALFA^ST (NbALFA clone 1G5) (assay: peptide elution from NbALFA^ST resin; tag position N).
NbALFA^ST (NbALFA clone 1G5), sequence (VHH, as listed by the source): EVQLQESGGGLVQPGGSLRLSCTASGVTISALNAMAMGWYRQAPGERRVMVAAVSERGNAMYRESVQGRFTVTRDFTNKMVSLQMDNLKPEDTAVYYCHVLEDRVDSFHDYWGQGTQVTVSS

Row | Binder | t1/2 [min]
1 | MPSAVEEELRRRLSPS (not fully specified (residues 2, 16); printed as MpSAVEEELRRRLSPs) [Mp…s (SEQ ID NO: 112)] | < 2
2 | MSAVEEELRRRLSPS (not fully specified (residue 15); printed as MSAVEEELRRRLSPs) […s (SEQ ID NO: 109)] | < 2
3 | MSAVEEELRRRLSPS (not fully specified (residue 15); printed as MSAVEEELRRRLSPs) […s (SEQ ID NO: 111)] | < 2
4 | MSSAVEEELRRRLSPS (not fully specified (residues 2, 16); printed as MsSAVEEELRRRLSPs) [Ms…s (SEQ ID NO: 113)] | < 2

What follows are binders tested against NbALFA^ST (NbALFA clone 1G5) (assay: peptide elution from NbALFA^ST resin; tag position M).

Row | Binder | t1/2 [min]
5 | DSGRLEQEIRRALSPG [ds…g (SEQ ID NO: 101)] | < 2
6 | DPSGLEQELRRRLPTA [dp…a (SEQ ID NO: 105)] | < 2
7 | DSGRLEEELRRSPG [ds…--SPg (SEQ ID NO: 95)] | < 2
8 | DSGRLEEELRSPG [dsGRLEEELR---SPg (SEQ ID NO: 96)] | < 2
9 | DSGALEQEIRRRLSPG [ds…g (SEQ ID NO: 100)] | < 2
10 | SDSGAEEELRRRLSPG [sd…g (SEQ ID NO: 98)] | < 2
11 | PDSGLEQELRRRLPTA [pd…a (SEQ ID NO: 104)] | < 2
12 | SDSGEEELRRRLSPG [sdSG-…g (SEQ ID NO: 92)] | < 2
13 | DSGALEEELRRRLSPG [ds…g (SEQ ID NO: 99)] | < 2
14 | SDSGLEEEARRRLSPG [sd…g (SEQ ID NO: 97)] | < 2
15 | DSGRLEQEIRRQLSPG [ds…g (SEQ ID NO: 102)] | < 2
16 | SDSGEELRRRLSPG [sdSG--…g (SEQ ID NO: 93)] | < 2
17 | DSGRLEQEIRRELSPG [ds…g (SEQ ID NO: 103)] | < 2
18 | DSPGLEQELRRRLPTA [ds…a (SEQ ID NO: 106)] | < 2
19 | DSGPLEQELRRRLPTA [ds…a (SEQ ID NO: 107)] | < 2
20 | DSGRLEEELRRRSPG [ds…-SPg (SEQ ID NO: 94)] | < 2
